Five molecules from patent publication US20060177816A1, “Cellular RhoGTPase activation assay” (Abbott GmbH & Co. KG., priority 2005, published 2006) can be followed below.

The subject of one data set is Rho. Put plainly: RBD assay (pulldown of GTP-bound Rho with GST-RBD beads, immunoblot). The data set is classed as cell-based, human. The procedure:
The HEK cells either remained unstimulated or were stimulated (e.g. with LPA or AP-Nogo-66) for a period of from 5 to 10 minutes after a 2-hour starvation period (by incubation with serum-free RPMI-Glutamax). HEK cells (1×10^6 per well) were cultured in 6-well plates (volume of mixture 1000 μl/well). Before the stimulation, a particular volume appropriate for the concentration of the AP-Nogo66 batch employed (e.g. 100 μl of medium was removed from each well and the volume was correspondingly made up again to 1000 μl with AP-Nogo66, to result in a defined final concentration of AP-Nogo66 on the cells. Following the stimulation, the AP-Nogo66 medium solution was completely removed by aspiration. The cells were then washed with ice-cold PBS (phosphate-buffered saline) and lyzed in 50 mM Tris, pH 7.5 (comprising NaCl (500 mM), EDTA (1 mM), MgCl2 […], 10% glycerol, NaF (5 mM), DTT (1 mM), 1% Nonidet P-40 in combination with the protease inhibitors PMSF (1 mM), leupeptin (1 μg/ml) and aprotinin (1 μg/ml)).
Cell lysates (e.g. from HEK293-RhoA and HEK293-RhoA/NgR/p75; 400 μg of total protein in each case) were incubated with 40 μg of the GST-RBD beads (comprising recombinant fusion protein composed of glutathione S-transferase and RBD with amino acids 7 to 89 of human rhotekin) at 4° C. for 1 hour. After the beads had been washed 3 times with lysis buffer, the bound protein (GTP-bound, biochemically active Rho) was analyzed by SDS-PAGE and immunoblotting. The immunoblotting was carried out with anti-Rho antibody and the visualization took place by incubation with a horseradish peroxidase-conjugated secondary antibody and chemiluminescence enhancer (ECL).
It was investigated, using the RBD assay described above, whether Rho is activated after stimulation of NgR with myelin proteins, such as Nogo-66, in HEK293-Rho cells which express NgR and p75 (HEK293-Rho/NgR/p75). The results are depicted in appended FIG. 5a.

In data set [1] the target is human Nogo receptor (hNgR) (human) (UniProt Q9BZR6). Put plainly: cell-based or functional assay.
The test system of data set [2] is HEK293-RhoA/NgR/p75 cells. Put plainly: ACR (actin cytoskeletal rearrangement) assay with image analysis. Type of data set: cell-based, human. The procedure:
1×10^4 cells were transferred into microtiter plates with 96 wells two days before the stimulation. The cells were stimulated with a suitable reagent (e.g. LPA or AP-Nogo-66) in culture medium (RPMI-Glutamax) comprising 5% FCS. After a stimulation period of 5 to 10 minutes, the activation was stopped with cold PBS. The cells were fixed with 3-4% strength paraformaldehyde solution, permeabilized with PBS comprising 0.2% Triton X-100, and incubated with phalloidin Alexa 568 or 488 for 30-45 minutes. Incubation with DAPI additionally took place for 5 minutes for nuclear staining. The cells were visualized with the aid of an epifluorescence microscope (Axiovert 25). Fluorescence micrograms were recorded using a cooled Zeiss CCD camera.
HEK293-Rho/NgR/p75 cells were transferred into microtiter plates with 96 wells (Biocoat Poly D-Lysine Black Clear Plates from Becton Dickinson, Heidelberg, order number 356640). After a starvation period (cf. above) of 2 hours, the cells were preincubated with PI-PLC (1 U/ml) for 30 minutes or not treated. The cells were subsequently stimulated with LPA or AP-Nogo-66 or remained unstimulated. Fluorescence micrograms were obtained as described above. Representative appearances are depicted in FIG. 5b.
Fluorescence micrograms (FIG. 6a) obtained from an ACR assay carried out according to the invention (stimulation of HEK293-RhoA/NgR/p75 cells with 10 μg/ml AP-Nogo-66) were investigated with various high content screening systems, e.g. with the Atto Pathway HT image analysis system from BD Bioimages (Becton Dickinson) or the Discovery 1 from Molecular Devices, for changes in the cell morphology. […] The Pathway HT was used to determine the number of so-called cytoplasmic vertices (cytoplasmic vertices are a measure of changes in the cytoskeleton which describes inter alia the contraction of actin filaments and the formation of stress fibers). The result of this evaluation is depicted in FIG. 6c.
To analyze the reported morphological changes, 1×10^4 cells per well were seeded into 96-well plates, fixed, the actin filaments were stained with FITC-labelled Alexa Phalloidin and the nuclei were visualized with DAPI. The plates were subjected to our high-content screening (HCS) system, the Pathway HT (Becton Dickinson) and the corresponding image analysis software Attovision. Analyzing the perimeter of the actin cytoskeleton achieved the most significant difference when comparing stimulated with unstimulated samples. The perimeter of the actin cytoskeleton is calculated as “cytoplasmic verticies”, which is a measure for the number of turns or changes in direction that lines outlining the cell follow.

The target of a further data set is T1, NgR (Homo sapiens, UniProt Q9BZR6).
T1 sequence (Q9BZR6 27-447): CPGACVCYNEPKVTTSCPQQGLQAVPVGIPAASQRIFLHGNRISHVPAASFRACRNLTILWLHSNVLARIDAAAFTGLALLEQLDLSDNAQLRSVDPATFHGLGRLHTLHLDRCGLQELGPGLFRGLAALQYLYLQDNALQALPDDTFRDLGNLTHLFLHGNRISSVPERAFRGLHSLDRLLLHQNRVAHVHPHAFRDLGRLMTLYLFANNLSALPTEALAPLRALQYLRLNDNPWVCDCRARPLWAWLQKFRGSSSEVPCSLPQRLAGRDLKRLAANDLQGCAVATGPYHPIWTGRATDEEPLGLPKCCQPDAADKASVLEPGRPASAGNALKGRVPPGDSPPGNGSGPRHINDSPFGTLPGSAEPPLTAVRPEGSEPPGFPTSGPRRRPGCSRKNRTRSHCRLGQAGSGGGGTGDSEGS
Put plainly: Preliminary experiments on functional activity of tagged Nogo66 ligands. To be noted: not shown.

Where [3] appears, read: HEK293-RhoA/NgR/p75 cells, stimulated for 5 minutes.

alkaline phosphatase tag = alkaline phosphatase tag, N-terminal fusion

Turning to “L-alpha-lysophosphatidic acid [LPA, reference compound]”, the Rho activation result in the data set on Rho (setting [3]) was “rapid activation of Rho”; with Rho (HEK wild-type cells, LPA stimulation (data not shown)), “rapid activation of Rho”.
With “AP-Nogo66 (Nogo-66, comprising an N-terminal alkaline phosphatase Tag) (from UniProt Q9NQC3 1055-1120) (ligand)”, the maximal reduction of the average perimeter (cytoplasmic vertices) against untreated control cells, at 20 nM AP-Nogo66 in data set [1] fell in the range of 80 to 90%.
On to `C[C@@H](N)[C@H]1CC[C@H](C(=O)Nc2ccncc2)CC1` [Y-27632, reference compound], for which the “inhibition of AP-Nogo66 induced Rho-dependent cell rounding and shrinkage” value in data set [2] (15 min pre-treatment before stimulation with 20 nM AP-Nogo66) was “abolished AP-Nogo66 induced Rho-dependent cell rounding and shrinkage in a dose-dependent manner”. Further, the “IC50 for the inhibitory effect on the actin cytoskeletal rearrangement” value in data set [2] (15 min pre-treatment before stimulation with 20 nM AP-Nogo66, no number given) is reported as “ranges in the order of magnitude of what had described for this broadly used compound”.

B1: AP-Nogo66: Nogo-66, comprising an N-terminal alkaline phosphatase Tag; NgR receptor ligand (protein)
chain: {alkaline phosphatase tag}-RIYKGVIQAIQKSDEGHPFRAYLESEVAISEELVQKYSNSALGHVNCTIKELRRLFLVDDLVDSLK
modifications: not fully specified
notes: Nogo-66, comprising an N-terminal alkaline phosphatase Tag; NgR receptor ligand
With B1, in data set [2] (20 nM AP-Nogo66), the “time to maximum of morphological changes” value worked out at 15 min. In addition, the “maximal reduction of the average perimeter (cytoplasmic verticies) in comparison to untreated control cells” value in data set [2] (20 nM AP-Nogo66, 10 min stimulation, Attovision analysis) is 80-90%. Further, the “time to morphological changes” value in data set [2] (20 nM AP-Nogo66, onset of actin cytoskeletal rearrangement) is no more than 5 min. For the same molecule, the “morphological change of the cells after stimulation” value in data set [2] (10 μg/ml AP-Nogo-66, mean cell length and cytoplasmic vertices) was “significant, optically analyzable morphological change”. In addition, the “morphological changes after PI-PLC treatment and stimulation” value in data set [2] (PI-PLC (1 U/ml) preincubation for 30 minutes) is given as “not observable”. Moreover, the “Rho activation after release of NgR from the cell membrane” value in the data set on Rho (HEK293-RhoA/NgR/p75 cells treated with 1 U/ml PI-PLC 30 minutes before stimulation) is reported as “no Rho activation”. Moreover, the Rho activation result in the data set on Rho (setting [3]) is listed as “induced Rho activity”. The functional activity entry in the data set with NgR is given as “functionally active”.

B2: GST-Nogo66: otherwise tagged Nogo66 (GST tag) (protein)
chain: RIYKGVIQAIQKSDEGHPFRAYLESEVAISEELVQKYSNSALGHVNCTIKELRRLFLVDDLVDSLK
modifications: not fully specified (N-terminus); also: GST tag, end not given here (dimerising)
Regarding B2, in the data set with NgR, the functional activity result is “not”.
